# Measurements: the Human Domainome abundance scans (Beltran et al. 2025)
# ± gives the uncertainty stated by the source.
# B1: Gamma-crystallin D, residues 90 to 170; numbered along this chain, P07320 (parent)
# chain: IRLYEREDYRGQMIEFTEDCSCLQDRFRFNEIHSLNVLEGSWVLYELSNYRGRQYLLMPGDYRRYQDWGATNARVGSLRRV
# B2: Double-stranded RNA-specific adenosine deaminase, residues 296 to 358; numbered along this chain, P55265 (parent)
# chain: MAEIKEKICDYLFNVSDSSALNLAKNIGLTKARDINAVLIDMERQGDVYRQGTTPPIWHLTDK
# Variants of: B1
# Assay: abundance fitness (aPCA) (normalised: wild type 0, dead -1); higher = more abundant; growth selection in yeast, the domain comes from the species named
# Conditions: Homo sapiens
row,Variant,abundance fitness
1,G52I,-0.943 ± 0.32

# Variants of: B2
# Assay: as above
# Conditions: Homo sapiens
row,Variant,abundance fitness
1,E3R,-0.334 ± 0.05
2,E3T,-0.159 ± 0.059
3,E3V,-0.471 ± 0.081
4,E3F,-0.561 ± 0.11
5,E3I,-0.457 ± 0.098
6,E3A,-0.369 ± 0.074
7,E3P,-0.383 ± 0.077
8,E3H,-0.285 ± 0.075
9,E3G,-0.18 ± 0.056
10,E3M,-0.621 ± 0.15
11,E3L,-0.552 ± 0.055
12,E3W,-0.147 ± 0.054
13,E3N,-0.196 ± 0.078
14,E3Y,-0.298 ± 0.059
15,E3Q,-0.368 ± 0.11
16,E3K,-0.21 ± 0.061
17,E3S,-0.213 ± 0.045
18,C9D,-0.678 ± 0.14
19,C9L,0.168 ± 0.046
20,C9W,-0.018 ± 0.055
21,C9E,0.002 ± 0.053
22,C9G,-0.389 ± 0.036
23,C9V,0.217 ± 0.052
24,C9R,0.233 ± 0.037

row,Variant,abundance fitness
1,C9M,0.042 ± 0.062
2,C9T,0.119 ± 0.054
3,C9Q,-0.105 ± 0.075
4,C9N,0.077 ± 0.12
5,C9Y,0.09 ± 0.077
6,C9K,0.278 ± 0.052
7,C9H,-0.125 ± 0.12
8,C9I,0.338 ± 0.085
9,C9F,0.086 ± 0.11
10,C9A,-0.143 ± 0.05
11,K7S,-0.467 ± 0.067
12,K7A,-0.348 ± 0.066
13,K7M,-0.055 ± 0.15
14,K7D,-0.533 ± 0.14
15,K7W,-0.471 ± 0.27
16,K7L,-0.402 ± 0.067
17,K7C,-1.01 ± 0.12
18,K7Y,-0.796 ± 0.085
19,K7P,-0.906 ± 0.27
20,K7F,-0.543 ± 0.088
21,K7V,-0.641 ± 0.092
22,K7G,-0.775 ± 0.086
23,K7N,-0.534 ± 0.08
24,K7Q,-0.938 ± 0.39

row,Variant,abundance fitness
1,K7I,-0.779 ± 0.11
2,K7R,-0.266 ± 0.062
3,M1E,0.235 ± 0.13
4,M1W,0.017 ± 0.06
5,M1A,-0.418 ± 0.13
6,M1Q,0.435 ± 0.32
7,M1D,-0.359 ± 0.11
8,M1F,0.108 ± 0.2
9,M1S,-0.034 ± 0.066
10,M1C,-0.545 ± 0.3
11,M1L,-0.29 ± 0.096
12,M1G,-0.263 ± 0.084
13,M1R,0.151 ± 0.059
14,M1K,0.181 ± 0.073
15,M1Y,-0.327 ± 0.26
16,I8N,-0.543 ± 0.4
17,I8T,-0.713 ± 0.14
18,I8W,-1.3 ± 0.38
19,I8D,0.302 ± 0.3
20,I8E,-0.374 ± 0.074
21,I8P,-0.455 ± 0.18
22,I8G,-0.471 ± 0.096
23,I8H,-0.766 ± 0.2
24,I8K,-0.568 ± 0.12

row,Variant,abundance fitness
1,I8R,-0.374 ± 0.11
2,I8S,-0.304 ± 0.15
3,I8L,-0.903 ± 0.17
4,I8V,-0.649 ± 0.29
5,I8Q,-0.137 ± 0.11
6,I8F,-0.506 ± 0.19
7,I8A,-0.564 ± 0.13
8,I4L,0.146 ± 0.03
9,I4A,-0.37 ± 0.048
10,I4M,-0.217 ± 0.056
11,I4Y,-0.398 ± 0.063
12,I4T,-0.24 ± 0.054
13,I4Q,-0.327 ± 0.068
14,I4W,-0.666 ± 0.07
15,I4H,-0.227 ± 0.064
16,I4C,-0.995 ± 0.092
17,I4K,-0.2 ± 0.084
18,I4N,-0.327 ± 0.059
19,I4R,-0.387 ± 0.043
20,I4E,-0.287 ± 0.075
21,I4D,-0.121 ± 0.058
22,I4F,-0.649 ± 0.082
23,I4V,-0.293 ± 0.042
24,I4P,-0.551 ± 0.061

row,Variant,abundance fitness
1,I4S,-0.311 ± 0.04
2,I4G,-0.435 ± 0.043
3,K5P,-0.486 ± 0.069
4,K5M,-0.574 ± 0.082
5,K5V,-0.652 ± 0.073
6,K5I,-0.512 ± 0.081
7,K5Y,-0.79 ± 0.11
8,K5W,-0.465 ± 0.077
9,K5T,-0.601 ± 0.077
10,K5G,-0.616 ± 0.084
11,K5E,-0.666 ± 0.22
12,K5C,-0.924 ± 0.15
13,K5Q,-0.28 ± 0.065
14,K5A,-0.428 ± 0.058
15,K5N,-0.555 ± 0.097
16,K5H,-0.68 ± 0.1
17,K5R,-0.118 ± 0.052
18,K5F,-0.449 ± 0.066
19,A2Q,0.023 ± 0.092
20,A2H,-0.151 ± 0.18
21,A2D,0.207 ± 0.099
22,A2N,0.051 ± 0.078
23,A2P,-0.335 ± 0.078
24,A2F,-0.471 ± 0.21

row,Variant,abundance fitness
1,A2S,-0.024 ± 0.063
2,A2W,-0.18 ± 0.064
3,A2V,-0.247 ± 0.059
4,A2R,0.004 ± 0.048
5,A2T,-0.152 ± 0.086
6,A2K,0.168 ± 0.075
7,A2L,-0.096 ± 0.06
8,A2C,-0.393 ± 0.086
9,A2E,0.3 ± 0.057
10,A2M,0.045 ± 0.071
11,Y11C,-0.22 ± 0.076
12,Y11D,-0.488 ± 0.087
13,Y11A,-0.126 ± 0.047
14,E6C,-0.654 ± 0.21
15,E6Q,-0.03 ± 0.087
16,E6K,0.056 ± 0.23
17,E6V,-0.589 ± 0.069
18,E6I,-0.886 ± 0.15
19,E6G,-0.246 ± 0.056
20,E6L,-0.57 ± 0.068
21,E6N,-0.428 ± 0.12
22,E6W,-0.793 ± 0.088
23,E6F,-0.839 ± 0.27
24,E6D,-0.517 ± 0.15

row,Variant,abundance fitness
1,E6R,-0.338 ± 0.056
2,E6M,-0.25 ± 0.1
3,E6Y,-0.832 ± 0.26
4,E6P,-0.831 ± 0.13
5,E6S,-0.39 ± 0.062
6,E6A,-0.148 ± 0.055
7,E6H,-0.557 ± 0.1
8,D10G,-0.514 ± 0.073
9,D10A,-0.021 ± 0.041
10,D10L,-0.568 ± 0.053
11,D10I,-0.502 ± 0.16
12,D10R,0.051 ± 0.04
13,D10Q,0.051 ± 0.058
14,D10N,0.085 ± 0.077
15,D10F,-0.653 ± 0.17
16,D10E,0 ± 0.075
17,D10T,-0.157 ± 0.053
18,D10M,-0.44 ± 0.074
19,D10W,-0.297 ± 0.073
20,D10H,0.011 ± 0.1
21,D10Y,-0.453 ± 0.17
22,D10S,0.05 ± 0.045
